Results: US20250019439A1 (Adimab, published 2025)
Like-named read-outs stand apart in the source and are kept apart here.

Experiments:
[1] = target: T1, ADI-26906 IgG; assay: SPR Carterra avidity, yeast anti-ID
T1 construct: anti-CD3 IgG
Procedure, shortened: (§1)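 At 25° C, anti-idiotype antibodies were analysed binding to anti-CD3 antibodies held on an anti-human Fc surface. Data were fitted to a 1:1 model.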

[2] = target: T2, ADI-67447; assay: SPR Carterra avidity, yeast anti-ID
T2 construct: anti-CD3 antibody made in CHO cells, captured by anti-human Fc
T2 sequence (VH, as listed by the source limits assumed, chain 1 of 2): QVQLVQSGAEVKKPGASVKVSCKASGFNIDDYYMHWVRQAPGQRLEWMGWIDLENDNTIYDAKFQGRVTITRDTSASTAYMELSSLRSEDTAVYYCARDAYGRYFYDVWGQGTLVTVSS
T2 sequence (VL, as listed by the source limits assumed, chain 2 of 2): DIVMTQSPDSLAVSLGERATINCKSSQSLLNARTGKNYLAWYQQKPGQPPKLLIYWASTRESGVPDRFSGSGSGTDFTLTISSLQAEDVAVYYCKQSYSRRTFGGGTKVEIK
Procedure, shortened: as §1

[3] = target: T3, ADI-76359; assay: SPR Carterra avidity, yeast anti-ID
T3 construct: anti-CD3 antibody made in CHO cells, captured by anti-human Fc
T3 sequence (VH, as listed by the source, chain 1 of 2): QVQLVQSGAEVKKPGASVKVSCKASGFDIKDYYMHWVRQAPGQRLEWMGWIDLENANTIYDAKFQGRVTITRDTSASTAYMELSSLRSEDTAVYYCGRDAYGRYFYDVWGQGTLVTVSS
T3 sequence (VL, as listed by the source, chain 2 of 2): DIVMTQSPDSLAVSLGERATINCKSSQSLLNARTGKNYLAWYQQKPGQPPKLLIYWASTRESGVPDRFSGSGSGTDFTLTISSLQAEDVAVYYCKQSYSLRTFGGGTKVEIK
Procedure, shortened: as §1

[4] = target: T4, ADI-67450; assay: SPR Carterra avidity, yeast anti-ID
T4 construct: anti-CD3 antibody made in CHO cells, captured by anti-human Fc
T4 sequence (VH, as listed by the source limits assumed, chain 1 of 2): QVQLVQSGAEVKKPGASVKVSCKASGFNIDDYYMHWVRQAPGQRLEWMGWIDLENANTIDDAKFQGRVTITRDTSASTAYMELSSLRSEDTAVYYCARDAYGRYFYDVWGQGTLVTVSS
Procedure, shortened: as §1

[5] = target: T5, ADI-26915; assay: SPR Carterra avidity, yeast anti-ID
T5 construct: anti-CD3 antibody made in CHO cells, captured by anti-human Fc
T5 sequence (VH, as listed by the source, chain 1 of 2): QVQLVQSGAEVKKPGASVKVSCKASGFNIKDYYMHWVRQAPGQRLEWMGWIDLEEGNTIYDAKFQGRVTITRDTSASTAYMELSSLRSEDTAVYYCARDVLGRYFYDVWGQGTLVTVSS
Procedure, shortened: as §1

[6] = target: T6, ADI-74966; assay: SPR Carterra avidity, yeast anti-ID
T6 construct: pH-dependent anti-CD3 antibody made in CHO cells
T6 sequence (VH, as listed by the source, chain 1 of 2): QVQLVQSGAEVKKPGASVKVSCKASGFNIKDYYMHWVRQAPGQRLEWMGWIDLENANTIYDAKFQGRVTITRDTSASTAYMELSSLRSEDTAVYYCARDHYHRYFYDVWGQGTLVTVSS
T6 sequence (VL, as listed by the source, chain 2 of 2): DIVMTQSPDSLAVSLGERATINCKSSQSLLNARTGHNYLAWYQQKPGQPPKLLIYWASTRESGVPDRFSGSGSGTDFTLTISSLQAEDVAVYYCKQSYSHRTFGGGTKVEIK
Procedure, shortened: as §1

[7] = target: T7, ADI-76361; assay: SPR Carterra avidity, yeast anti-ID
T7 construct: anti-CD3 antibody made in CHO cells, captured by anti-human Fc
T7 sequence (VH, as listed by the source, chain 1 of 2): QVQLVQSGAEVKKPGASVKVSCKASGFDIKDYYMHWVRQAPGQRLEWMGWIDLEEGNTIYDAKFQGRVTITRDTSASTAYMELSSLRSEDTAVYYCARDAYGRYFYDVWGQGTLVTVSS
Procedure, shortened: as §1

[8] = target: T8, CTL-62223; assay: SPR Carterra avidity, yeast anti-ID
T8 construct: also called mosunetuzumab
T8 sequence (VH, as listed by the source, chain 1 of 2): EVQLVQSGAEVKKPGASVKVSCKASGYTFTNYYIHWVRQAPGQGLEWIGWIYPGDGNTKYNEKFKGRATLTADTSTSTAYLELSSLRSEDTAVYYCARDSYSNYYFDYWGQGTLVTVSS
T8 sequence (VL, as listed by the source, chain 2 of 2): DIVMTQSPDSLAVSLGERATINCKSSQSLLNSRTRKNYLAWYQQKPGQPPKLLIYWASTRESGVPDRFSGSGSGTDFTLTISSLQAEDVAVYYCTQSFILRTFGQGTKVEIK
Procedure, shortened: as §1

[9] = target: T9, ADI-22523 Fab; assay: BLI; tip ADI-34134 IgG, solution anti-CD3 Fab
T9 construct: anti-CD3 Fab by papain digestion of the IgG
T9 sequence (VH, as listed by the source limits assumed, chain 1 of 2): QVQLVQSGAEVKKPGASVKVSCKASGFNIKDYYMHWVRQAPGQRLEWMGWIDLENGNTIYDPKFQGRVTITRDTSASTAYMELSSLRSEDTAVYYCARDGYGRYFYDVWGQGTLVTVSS
T9 sequence (VL, as listed by the source limits assumed, chain 2 of 2): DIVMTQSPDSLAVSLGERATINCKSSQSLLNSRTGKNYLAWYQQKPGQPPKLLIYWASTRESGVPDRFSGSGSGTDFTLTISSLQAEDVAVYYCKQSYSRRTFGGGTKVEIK
Method: (§2) ForteBio affinity measurements were performed generally as previously described (Estep et al., MAbs. 2013 5(2):270-8). Briefly, ForteBio affinity measurements were performed by loading antibody IgG or Fabs on-line onto AHC sensors. Sensors were equilibrated off-line in assay buffer for 30 minutes and then monitored on-line for 60 seconds for baseline establishment. For avid binding measurement, sensors with loaded antibodies were exposed to IgG or Fab solutions for 3 minutes, afterwards they were transferred to assay buffer for 3 minutes for off-rate measurement. Kinetics data were fit using a 1:1 binding model in the data analysis software provided by ForteBio to obtain equilibrium dissociation constant (KD=koff/kₒₙ) values. In each column, tip-immobilized antibodies are listed first and solution antibodies second.
(§3) CTL-19613 is an IgG1 antibody prepared with anti-CD3 variable domains corresponding with those of clone 12C described in United States Publication Number US 2010/0183615 (e.g., see paragraphs 469-479 and FIG. 25 thereof), which also make up the CD3 binding domain of the bispecific antibody pasotuxizumab. […] In each column, tip-immobilized antibodies are listed first and solution antibodies second.

[10] = target: T10, ADI-26906 Fab; assay: BLI; tip ADI-34134 IgG, solution anti-CD3 Fab
T10 construct: anti-CD3 Fab by papain digestion of the IgG
T10 sequence (VH, as listed by the source limits assumed, chain 1 of 2): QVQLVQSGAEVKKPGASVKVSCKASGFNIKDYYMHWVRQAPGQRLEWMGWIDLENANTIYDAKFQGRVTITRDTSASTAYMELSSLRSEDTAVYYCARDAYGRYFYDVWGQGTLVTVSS
Method: as §2, §3

[11] = target: T11, ADI-26913 Fab; assay: BLI; tip ADI-34134 IgG, solution anti-CD3 Fab
T11 construct: anti-CD3 Fab by papain digestion of the IgG
T11 sequence (VH, as listed by the source limits assumed, chain 1 of 2): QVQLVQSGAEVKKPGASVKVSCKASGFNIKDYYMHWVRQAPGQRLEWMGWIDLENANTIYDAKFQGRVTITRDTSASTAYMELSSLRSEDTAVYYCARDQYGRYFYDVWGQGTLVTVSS
Method: as §2, §3

[12] = target: T12, ADI-26916 Fab; assay: BLI; tip ADI-34134 IgG, solution anti-CD3 Fab
T12 construct: anti-CD3 Fab by papain digestion of the IgG
T12 sequence (VH, as listed by the source, chain 1 of 2): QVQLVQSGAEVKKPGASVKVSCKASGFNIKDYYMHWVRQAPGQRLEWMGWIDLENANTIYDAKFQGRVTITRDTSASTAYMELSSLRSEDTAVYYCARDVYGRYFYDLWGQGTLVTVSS
Method: as §2, §3

[13] = target: T13, ADI-26920 Fab; assay: BLI; tip ADI-34134 IgG, solution anti-CD3 Fab
T13 construct: anti-CD3 Fab by papain digestion of the IgG
T13 sequence (VH, as listed by the source limits assumed, chain 1 of 2): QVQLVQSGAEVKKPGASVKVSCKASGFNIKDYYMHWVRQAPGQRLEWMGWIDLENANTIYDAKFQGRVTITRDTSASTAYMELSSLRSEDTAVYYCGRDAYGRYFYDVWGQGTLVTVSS
Method: as §2, §3

[14] = target: T14, ADI-26921 Fab; assay: BLI; tip ADI-34134 IgG, solution anti-CD3 Fab
T14 construct: anti-CD3 Fab by papain digestion of the IgG
T14 sequence (VH, as listed by the source limits assumed, chain 1 of 2): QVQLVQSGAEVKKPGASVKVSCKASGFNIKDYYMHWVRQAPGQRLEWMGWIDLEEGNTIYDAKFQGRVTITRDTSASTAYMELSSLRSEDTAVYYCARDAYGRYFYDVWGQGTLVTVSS
Method: as §2, §3

[15] = target: T15, ADI-26927 Fab; assay: BLI; tip ADI-34134 IgG, solution anti-CD3 Fab
T15 construct: anti-CD3 Fab by papain digestion of the IgG
T15 sequence (VH, as listed by the source limits assumed, chain 1 of 2): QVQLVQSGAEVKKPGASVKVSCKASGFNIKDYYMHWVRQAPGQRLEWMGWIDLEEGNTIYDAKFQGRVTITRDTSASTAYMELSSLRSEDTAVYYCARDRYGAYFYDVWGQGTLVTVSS
Method: as §2, §3

[16] = target: T16, ADI-26928 Fab; assay: BLI; tip ADI-34134 IgG, solution anti-CD3 Fab
T16 construct: anti-CD3 Fab by papain digestion of the IgG
T16 sequence (VH, as listed by the source limits assumed, chain 1 of 2): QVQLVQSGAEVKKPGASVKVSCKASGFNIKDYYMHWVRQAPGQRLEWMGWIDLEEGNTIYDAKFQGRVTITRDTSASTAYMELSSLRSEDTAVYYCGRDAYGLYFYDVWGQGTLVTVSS
Method: as §2, §3

[17] = target: T17, ADI-26941 Fab; assay: BLI; tip ADI-34134 IgG, solution anti-CD3 Fab
T17 construct: anti-CD3 Fab by papain digestion of the IgG
T17 sequence (VH, as listed by the source limits assumed, chain 1 of 2): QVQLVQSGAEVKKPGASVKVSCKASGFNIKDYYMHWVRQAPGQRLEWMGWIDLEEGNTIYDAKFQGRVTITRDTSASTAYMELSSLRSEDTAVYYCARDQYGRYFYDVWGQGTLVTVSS
T17 sequence (VL, as listed by the source limits assumed, chain 2 of 2): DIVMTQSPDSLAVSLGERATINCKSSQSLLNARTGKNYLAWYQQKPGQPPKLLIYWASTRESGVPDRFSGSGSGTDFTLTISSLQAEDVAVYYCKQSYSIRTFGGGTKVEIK
Method: as §2, §3

[18] = target: T18, CTL-19613 Fab; assay: BLI; tip ADI-34134 IgG, solution anti-CD3 Fab
T18 construct: anti-CD3 Fab by papain digestion of the IgG1
Method: as §2, §3

[19] = target: T9, ADI-22523 Fab; assay: BLI; tip ADI-34134 IgG, solution anti-CD3 Fab; remark: listed apart in the source
Method: as §2
(§4) In each column, tip-immobilized antibodies are listed first and solution antibodies second.

[20] = target: T10, ADI-26906 Fab; assay: BLI; tip ADI-34134 IgG, solution anti-CD3 Fab; remark: listed apart in the source
Method: as §2, §4

[21] = target: T11, ADI-26913 Fab; assay: BLI; tip ADI-34134 IgG, solution anti-CD3 Fab; remark: listed apart in the source
Method: as §2, §4

[22] = target: T12, ADI-26916 Fab; assay: BLI; tip ADI-34134 IgG, solution anti-CD3 Fab; remark: listed apart in the source
Method: as §2, §4

[23] = target: T14, ADI-26921 Fab; assay: BLI; tip ADI-34134 IgG, solution anti-CD3 Fab; remark: listed apart in the source
Method: as §2, §4

[24] = target: T15, ADI-26927 Fab; assay: BLI; tip ADI-34134 IgG, solution anti-CD3 Fab; remark: listed apart in the source
Method: as §2, §4

[25] = target: T16, ADI-26928 Fab; assay: BLI; tip ADI-34134 IgG, solution anti-CD3 Fab; remark: listed apart in the source
Method: as §2, §4

[26] = target: T17, ADI-26941 Fab; assay: BLI; tip ADI-34134 IgG, solution anti-CD3 Fab; remark: listed apart in the source
Method: as §2, §4

[27] = target: T19, ADI-26954 Fab; assay: BLI; tip ADI-34134 IgG, solution anti-CD3 Fab
T19 construct: anti-CD3 Fab by papain digestion of the IgG
T19 sequence (VH, as listed by the source limits assumed, chain 1 of 2): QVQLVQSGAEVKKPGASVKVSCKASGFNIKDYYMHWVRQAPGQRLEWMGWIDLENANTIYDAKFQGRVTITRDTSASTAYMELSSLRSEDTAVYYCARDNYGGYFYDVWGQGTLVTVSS
T19 sequence (VL, as listed by the source limits assumed, chain 2 of 2): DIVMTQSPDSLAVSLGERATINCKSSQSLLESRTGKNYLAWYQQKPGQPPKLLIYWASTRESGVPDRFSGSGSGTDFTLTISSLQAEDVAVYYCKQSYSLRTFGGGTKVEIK
Method: as §2, §4

B1: ADI-34145 IgG (antibody, V domains shown)
VH: EVQLLESGGGLVQPGGSLRLSCAASGFTFSSYAMSWVRQAPGKGLEWVSTISGSGGSTYYADSVKGRFTISRDNSKNTLYLQMNSLRAEDTAVYYCARLGGRRGSGSSYYYYYGMDVWGQGTTVTVSS
VL: not shown
notes: anti-ID IgG
[1]
  Kd: 14 nM
[2]
  Kd: 27 nM
[3]
  Kd: 14 nM

B2: ADI-34134 IgG (antibody, V domains shown)
VH: QVQLVQSGAEVKKPGSSVKVSCKASGGTFSSYAISWVRQAPGQGLEWMGGIIPIFGTANYAQKFQGRVTITADESTSTAYMELSSLRSEDTAVYYCARGAPNYYGSGGYDDGWFDPWGQGTLVTVSS
VL: EIVLTQSPGTLSLSPGERATLSCRASQSVSSDYLAWYQQKPGQAPRLLIYGASSRATGIPDRFSGSGSGTDFTLTISRLEPEDFAVYYCQQFGRVPTFGGGTKVEIK
[4]
  Kd: 12 nM
[5]
  Kd: 19 nM
[6]
  Kd: 52 nM
[7]
  Kd: 7.1 nM
[8]
  Kd: 18 nM
[9]
  Kd: 4.46 nM
[10]
  Kd: 36 nM
[11]
  Kd: 86.5 nM
[12]
  Kd: 110 nM
[13]
  Kd: 29.8 nM
[14]
  Kd: 92.7 nM
[15]
  Kd: 25.6 nM
[16]
  Kd: 182 nM
[17]
  Kd: 112 nM
[18]
  binding result: no binding
[19]
  Kd: 5.62 nM
[20]
  Kd: 17.8 nM
[21]
  Kd: 79.8 nM
[22]
  Kd: 56.5 nM
[23]
  Kd: 185 nM
[24]
  Kd: 38.2 nM
[25]
  Kd: 31 nM
[26]
  Kd: 138 nM
[27]
  Kd: 157 nM
